The values below are quoted from earlier work in publication PMC6205161.

The target of this data set is apo-GLRX5 (Homo sapiens) (UniProt Q86SX6). Briefly: thermophoresis.
Sequence of UniProt Q86SX6 (Q86SX6 32-157): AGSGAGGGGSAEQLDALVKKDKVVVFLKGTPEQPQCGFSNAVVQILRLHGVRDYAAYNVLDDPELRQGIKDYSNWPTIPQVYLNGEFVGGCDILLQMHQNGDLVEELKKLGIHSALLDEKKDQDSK

As for BOLA1 (from UniProt Q9Y3E2), the equilibrium dissociation constant (Kd) (commonly the equilibrium constant for the complex coming apart) is 3000 nM.
As to BOLA3 (from UniProt Q53S33), the Kd was 3000 nM.
